From US20220089741A1 (HUABO BIOPHARM SHANGHAI, published 2022) come the findings set out here.

Broadly, the Kd is the equilibrium constant for the complex coming apart. A lower Kd goes with tighter binding. Broadly, the EC50 is the concentration giving half of the maximal effect. Low readings indicate an effect from little substance, high ones a need for much substance. In general, IC50 refers to the midpoint of a concentration-inhibition curve. High values mean weaker potency, low ones greater potency. Usually koff stands for the rate constant with which the complex falls apart. Low readings indicate a long-lived complex, high ones a short-lived complex. By kon is commonly meant a measure of how fast the partners come together. High values mean faster complex formation, low ones slower complex formation.

Test [1] has as its target human PD-L1 protein (hybridoma screening) (human, UniProt Q9NZQ7 19-239, limits assumed). Nature of the test: SPR, hybridoma monoclone. (SPR reads the build-up and loss of mass on a sensor chip optically.)
Test [2] deals with T1, huPD-L1-his protein (human, UniProt Q9NZQ7 19-239).
T1 construct: Bought protein; also called human PD-L1-His protein; human PD-L1 protein; not shown: His tag
T1 sequence (Q9NZQ7 19-239 limits assumed): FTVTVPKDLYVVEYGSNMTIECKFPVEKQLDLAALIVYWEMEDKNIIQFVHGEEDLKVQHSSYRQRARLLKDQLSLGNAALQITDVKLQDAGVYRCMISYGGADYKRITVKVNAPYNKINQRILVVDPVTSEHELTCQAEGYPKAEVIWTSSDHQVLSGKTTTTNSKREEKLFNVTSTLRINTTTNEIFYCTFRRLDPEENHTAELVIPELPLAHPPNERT
Kind of test: ELISA, huPD-L1-his coated at 1 ug/ml. The procedure:
Specifically, 1 ug/ml huPD-L1-his protein (purchased from Sino Biological, #10084-H08H) was added to the ELISA plate at 50 ul/well, and coated at 2-8° C. for more than 12 hours. The raffinate of plate coating was discarded, 200 ul of 3% milk was added to each well, and blocked at room temperature for 1 hour. PBST not less than 200 uL was added to each well for washing once. The antibody sample to be tested was diluted to 100 ug/ml, then diluted 5 times for 11 gradients, and added to the ELISA plate at 100 uL/well. After incubation at room temperature for 1 hour, PBST no less than 200 uL was added to each well. After washing for 4 times, HRP-conjugated Rabbit Anti-Human IgG Fc Antibody (Luoyang Baiaotong Experimental Material Center, #C030222) diluted 25000 times with 3% milk-PBST was added as 100 uL/well. After incubating at room temperature for 1 hour, PBST not less than 200 uL was added to each well, washed 6 times and beat dry. 100 uL of TMB Substrate was added to each well. After 5 minutes of reaction at room temperature, 50 uL/well of 2M H2504 was added to terminate the reaction. The ELISA plate with stopped reaction was placed on the microplate reader, and the absorbance of OD450 value was read at 450 nm wavelength.
Background: An ELISA detects its analyte on a solid surface through an enzyme-linked reagent.

The target in a further test is T2, rhPD-L1-his protein (monkey, UniProt G7PSE7 19-238).
T2 construct: Bought protein; also called monkey PD-L1 protein; Sino Biological #90251-C08H; not shown: C-terminal His tag
T2 sequence (G7PSE7 entry or part of it limits assumed): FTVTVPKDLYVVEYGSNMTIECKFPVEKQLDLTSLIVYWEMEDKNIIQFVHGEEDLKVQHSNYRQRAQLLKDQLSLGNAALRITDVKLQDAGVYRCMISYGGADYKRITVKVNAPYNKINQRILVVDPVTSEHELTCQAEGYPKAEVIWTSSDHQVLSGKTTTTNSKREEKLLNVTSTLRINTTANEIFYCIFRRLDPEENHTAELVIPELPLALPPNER
Nature of the test: ELISA, rhPD-L1-his coated.

Another test concerns the target T3, huPD-L1-moFc (human, UniProt Q9NZQ7 19-238, limits assumed).
T3 construct: also called 800023, Huabo Bio; not shown: mouse Fc
Kind of test: flow cytometry competition: blocking of huPD-L1-moFc binding to cells expressing human PD-1. The procedure:
The suspension of cells (3C2-huPD-1-6F4, Huabo Bio) expressing human PD-1 in the logarithmic growth phase was centrifuged (1000 rpm×5 min) to discard the culture medium, and the cells were resuspended with 1% BSA/PBS to a living cell density of 1×10⁶/ml. […] The reacted 96-well U-shaped plate was resuspended with 1% BSA/PBS, centrifuged (300 g×3 min) to discard the supernatant, and washed like this for twice. […] The reacted 96-well U-shaped plate was resuspended with 1% BSA/PBS, centrifuged (300 g×3 min) to discard the supernatant, and washed like this for three times. Finally, the plate was resuspended with 100 uL of 1% BSA/PBS for each well and the fluorescence intensity of the first channel was detected by flow cytometry (BD, #Accuri C6).
For orientation: A flow cytometer gives signals particle by particle.

For test [3], the target named is T1, huPD-L1-his protein. Nature of the test: SPR (Biacore 8K), antibody captured on anti-human capture CM5 chip, huPD-L1 as analyte, 1:1 model. How it is done: In this experiment, SPR method was used to determine antibody-antigen binding kinetics and affinity.
Anti-Human Capture-CM5 chip (GE, #BR-1005-30) was prepared according to the coupling method of Human Antibody Captrue Kit (GE, #BR-1008-39) and Amino Coupling Kit (GE, BR-1000-50). The chip was balanced at room temperature for 20-30 min, and loaded into a Biacore 8K instrument. B5D1 was diluted to the experimental working concentration with equilibration buffer. The antigen was diluted to 50 nM with equilibration buffer, then diluted 3 times for 7 concentration gradients, and 2 zero concentrations (i.e. equilibration buffer) and 1 repeated concentration (generally is a repeat of lowest concentration) were set. In the order of antibody, antigen huPD-L1 (Sino Biological, #10084-H08H), and regeneration, 10 antigen concentrations (2 zero concentrations, 7 gradient concentrations, and 1 repeat concentration) were cyclically subjected to experimental analysis. The antigen injection flow rate was 30 uL/min, the binding time was 120 seconds, and the dissociation time was 600 seconds.

T3 sequence (Q9NZQ7 19-238 limits assumed): as the sequence (G7PSE7 entry or part of it limits assumed) above, with T33A, S34A, N62S, Q68R, R82Q, L173F, A185T, I192T, L215H counted along it
Sequence of human PD-L1 protein (hybridoma screening) (Q9NZQ7 19-239 limits assumed): as the sequence (Q9NZQ7 19-239 limits assumed) above

B1: 36C06-D8 (antibody, V domains shown)
VH: QVQLQQSGAELVKPGASVKLSCKASGYAFTGYTIHWVKQRSGLGLEWLGWFYPGSGTLKYNEKFKDKATLTADKSSSTVYLELSRLTSEDSAVYFCARHGTGTLMAMDYWGQGTSVTVSS
VL: DVVVTQTPLSLPVSFGDQVSISCRSSQSLANSYGNTYLSWYLHKPGQSPQLLIYGISNRFSGVPDRFSGSGSGTDFTLKISTIKPEDLGMYYCLQGTHQPPTFGGGTKLEIK
notes: also called hybridoma 36C06/D8; mouse monoclonal antibody against human PD-L1
B1: binding in test [1] was characterised by a dissociation constant (Kd) of 2.74 nM.

B2: chimeric antibody 900289 (antibody, V domains shown)
VH: QVQLQQSGAELVKPGASVKLSCKASGYAFTGYTIHWVKQRSGLGLEWLGWFYPGSGTLKYNEKFKDKATLTADKSSSTVYLELSRLTSEDSAVYFCARHGTGTLMAMDYWGQGTSVTVSS
VL: DVVVTQTPLSLPVSFGDQVSISCRSSQSLANSYGNTYLSWYLHKPGQSPQLLIYGISNRFSGVPDRFSGSGSGTDFTLKISTIKPEDLGMYYCLQGTHQPPTFGGGTKLEIK
notes: Expressed in CHO-S cells; also called chimeric IgG1-kappa antibody; human-mouse chimeric antibody
In turn, B2 displayed an EC50 with huPD-L1-his protein [2] of 0.0433 µg/mL. Besides, the midpoint of the response with rhPD-L1-his protein, the EC50, lay at 0.14 µg/mL. This molecule also returned an IC50 with huPD-L1-moFc of 0.00199 µg/mL. Moreover, in the test with huPD-L1-his protein [3], the dissociation constant Kd was determined as 1.34 nM, the koff worked out at 0.000312 s⁻¹ and the kon stood at 233000 M⁻¹ s⁻¹.

B3: humanized antibody 900339 (antibody, V domains shown)
VH: QVQLVQSGAEVKKPGASVKVSCKASGYAFTGYTIHWVRQAPGQRLEWMGWFYPGSGTLKYSEKFQGRVTITRDKSLSTAYMELSSLRSEDTAVYYCARHGTGTLMAMDYWGQGTLVTVSS
VL: DVVMTQTPLSLSVTPGQPASISCKSSQSLANSYGNTYLSWYLHKPGQSPQLLIYGISNRFSGVPDRFSGSGSGTDFTLKISRVEAEDVGVYYCLQGTHQPPTFGQGTKLEIK
notes: Humanized from the chimeric antibody; Expressed in CHO-S cells; also called humanized PD-L1 monoclonal antibody
For B3, the 50% effective concentration (EC50) with huPD-L1-his protein [2] stood at 0.0485 µg/mL. The molecule further displayed an EC50 in the test with rhPD-L1-his protein of 0.115 µg/mL. In addition, the IC50 with huPD-L1-moFc was 0.00242 µg/mL. In the test with huPD-L1-his protein [3], this molecule gave a Kd of 0.94 nM, a koff of 0.000219 s⁻¹ and a kon of 233000 M⁻¹ s⁻¹.
